Source: patent US20260069689A1 (Regeneron, published 2026)

Legend:
[1] = biological target: T1, SARS-COV-2 RBD-MMH (SARS-COV-2 RBD extracellular domain with C-terminal myc-myc-hexahistidine tag) (SARS-CoV-2)
[2] = biological target: SARS-CoV-2 RBD.mmh (Spike amino acids Arg319-Phe541 with C-terminal myc-myc-6-Histidine tag) (SARS-CoV-2, UniProt P0DTC2 319-541)
[3] = biological target: T1, SARS-COV-2 RBD-MMH (SARS-COV-2 RBD …); test: SPR 37C, mAb captured, pH 7.4 vs pH 6.0

Binder | koff [1] | t½ at pH 6.0 [1] | t½ at pH 7.4 [1] | IC50 [2] | t½ Ratio of pH 7.4 to pH 6.0 [3]
mAb14232 (antibody, V domains shown) VH: QITLKESGPTLVKPTQTLTLTCTFSGFSLSASGVGVGWIRQPPGKALEWLALIYWDDDKRYSPSLKSRLTITKDTSKNQVVLTMTNMDPVDTATYYCAQHKVATIFDYWGQGTLVTVSS VL: QSALTQPPSASGSPGQSVTISCTATSSDVGNYNYVSWYQQHPGKAPKLMIYEVTKRPSGVPDRFSGSKSGNTASLTVSGLQAEDEADYYCSSYAGSWGVFGGGTKLTVLG | 0.0124 s⁻¹ | 0.9 min | 0.4 min | 18 nM | 0.4
mAb14247 (antibody, V domains shown) VH: QITLKESGPTLVKPTQTLTLTCTFSGFSLSTSAVGVGWIRQPPGKALEWLALIYWDDDKRYSPSLKSRLTITKDTSKNQLVLTMTNVDPVDTATYYCAHHTIQLIFDYWGQGTLVTVSS VL: QSALTQPASVSGSPGQSITISCTATSSDVGNYNYVSWYQQHPGKAPKLMIYEVSNRPSGVSNRFSGSKSGNTASLTISGLQAEDEADYYCSSYTSSSTPLVFGGGTKLTVLG | 0.00167 s⁻¹ | 6.9 min | 7.3 min | 0.446 nM | 1.1
mAb14258 (antibody, V domains shown) VH: QLQLQESGPGLVKPSETLSLICTGSGDSISSSHYYWGWIRQPPGKGLEWIGSTYFSGSTYYNPSLKSRVSISVDTSKNQVSLKLISVTAADTAVYYCAREMGATLGDYWGPGTLVTVSS VL: QSVLTQPPSASGTPGQRVTISCSGSSSNIGNNYVYWYQQFPGTTPRLLIYRNNERPSGVPDRFSGSKSGTSASLVISGLRSEDEADYYCAAWDDSLSAHYVFGTGTKVTVLG |  | 21.1 min | 5.4 min | 0.121 nM | 0.3
mAb14281 (antibody, V domains shown) VH: QVQLVQSGADVKKPGASVKVSCKTSGYIFTGYYIHWVRQAPGQGLEWMGWINPNSGGTNSAQKFQGRVTMTRDTSISTVYMELSRLRSDDTAVYYCAKSNSFSVLDYNFDYWGQGTLVTVSS VL: SSELTQDPAVSVALGQTVRITCQGDSLRSYYASWYQQKPGQAPVLVIYDKNNRPSGIPDRFSGSSSGNTASLTITGAQAEDEADYYCNSRDSSRNHLVVFGGGTKLTVLG | 0.00734 s⁻¹ | 1.6 min | 1.8 min | 0.397 nM | 1.1
mAb14255 (antibody, V domains shown) VH: QVQLQESGPGLVKPSETLSLTCTVSGGSISGYYWSWIRQPPGKGLDWIGYIYYRGNTNYNPSLKSRVTISVDTSNNQFSLKLSSVTAADTAVYYCARYGEGYGDASGYHFDYWGQGTLVTVSS VL: QSALTQPASVSGSPGQSITISCTGTSSDVGSYNLVSWYQQHPGKAPKLMIYEDSKRPSGVANPFSGSKSGNTASLTISGLQAEDEADYYCSSYAGSSTWVFGGGTKLTVLG | 0.00513 s⁻¹ | 2.3 min | 2.3 min | 0.157 nM | 1
mAb14234 (antibody, V domains shown) VH: QVQLVESGGGVVQPGRSLRLSCAASGFTFSSYGIHWVRQAPGKGLEWVAIIWYDGSEKYYADSVKGRFTISRDNSKNTLFLQMNSLEAEDTAVYYCARGPDLLTGYYNYFYYGMDVWGQGTTVTVSS VL: QSVLTQPPSVSGAPGQRVTISCTGSSSNIGIGYDVHWYQQLPGTVPKLLIYGNTNRPSGVPDRFSGSKSGTSASLAITGLQAEDEADYYCQSYDSSLSSYVFGTGTKVTVLG | 0.00143 s⁻¹ | 8.1 min | 5.2 min | 4.62 nM | 0.6
mAb14230 (antibody, V domains shown) VH: EVQLVESGGGLIQPGRSLRLSCAASGFTFDDYAMHWVRQAPGKGLEWVSGISWNSVSIDYADSVKGRFTISRDNAKNSLYLQMTSLTVEDTALYYCAKAFGYETLTGSDYFAYWGPGTLVTVSS VL: EIVLTQSPGTLSLSPGERATLSCRASQTVISTYLAWYQQKPGQSPRLLIYGASSRATGIPDRFSGSGSGTDFTLTISRLEPEDFAVYYCQQYGSSPQLTFGGGTKVEIKR | 0.00797 s⁻¹ | 1.4 min | 1.5 min | 9.97 nM | 1.1
mAb14280 (antibody, V domains shown) VH: QVQLVQSGAEVKKPGASVRVSCKASGYTFTGNYIHWVRQAPGQGLEWMAWINPNSGGKNYAQKFQGRVTLTRDTSVNTAYMELSRLRSDDTAMYYCARDVNYNILTGPGGLWGQGTLVTVSS VL: QSALTQPPSASGSPGQSVTISCTGTSSDVGGYNFVSWYQQHPGKAPKLMIYEVSKRPSGVPDRFSGSKSGNTASLTVSGLQAEDEADYYCSSYAGSNNFVFGTGTKVTVLG | 0.019 s⁻¹ | 0.6 min | 0.5 min | 1.74 nM | 0.8
mAb14257 (antibody, V domains shown) VH: EVQLVESGGGLVQPGGSLRLSCAASGFTVSRSYMNWVRQAPGKGLEWVSVVFTGGTTKHTDSVKGRFTISRDNSMNTLYLQMNSLRPEDTAVYYCARVAIVETTGAFDIWGQGTMVTVSS VL: QSVLTQPPSVSGAPGQRVTISCTGTSSNIGADFDVHWYQQFPGTAPKLLIYGHTNRPSGIPDRFSGSKSGTSASLAITGLQAEDEADYYCQSYDSSLSGSVVFGGGTKLTVLG | 0.00842 s⁻¹ | 1.4 min | 1.5 min | 0.365 nM | 1.1
mAb14256 (antibody, V domains shown) VH: QVQLQESGPGLVKPSETLSLTCTVSGGSISSHYWSWIRQPPGKGLEWIGYIYYSGSSNYNPSLKSRVTISVDTSKNQFSLKLNSVTAADTAVYYCARHYDILTGFDWFDPWGQGTLVTVSS VL: QSVLTQPPSVSGAPGQRVTISCTGSSSNIGTHYDVHWYQQLPGTAPKLLIYGNSNRPSGVPDRFSGSKSGTSASLAITGLQAEDEADYYCQSFDNSLTAPYVFGTGTKVTVLG | 0.00955 s⁻¹ | 1.2 min | 1 min | 0.48 nM | 0.8
mAb14235 (antibody, V domains shown) VH: QITLKESGPTLVKPTQTLTLTCTFSGFSLNTGGVGVGWIRQPPGNALEWLALIYWDDDKRYNPSLKTRLTISKDTSKNQVVLTMTNMDPVDTATYFCAHLTIAVIVDFWGQGTLVTVSS VL: QSALTQPASVSGSPGQSITISCTATSSDVGTYNYVSWFQHHPGKAPKLMIYEVTNRPSGVSNRFSGSKSGNTASLTISGLQAEDEADYYCSSYTTTSIVFGGGTKLTVLG | 0.00114 s⁻¹ | 10.1 min | 7.8 min | 0.234 nM | 0.8
